Consider four molecules from PMC4027207, “Molecular dissection of the domain architecture and catalytic activities of human PrimPol” (Nucleic Acids Research, 2014).

Data set [1] has as its target T1, human PrimPol (wild-type, full-length) (Homo sapiens, UniProt Q96LW4).
T1 construct: full length (560 residues), E. coli BL21(pLysS), Ni-NTA, heparin and gel filtration
T1 sequence (Q96LW4 1-560): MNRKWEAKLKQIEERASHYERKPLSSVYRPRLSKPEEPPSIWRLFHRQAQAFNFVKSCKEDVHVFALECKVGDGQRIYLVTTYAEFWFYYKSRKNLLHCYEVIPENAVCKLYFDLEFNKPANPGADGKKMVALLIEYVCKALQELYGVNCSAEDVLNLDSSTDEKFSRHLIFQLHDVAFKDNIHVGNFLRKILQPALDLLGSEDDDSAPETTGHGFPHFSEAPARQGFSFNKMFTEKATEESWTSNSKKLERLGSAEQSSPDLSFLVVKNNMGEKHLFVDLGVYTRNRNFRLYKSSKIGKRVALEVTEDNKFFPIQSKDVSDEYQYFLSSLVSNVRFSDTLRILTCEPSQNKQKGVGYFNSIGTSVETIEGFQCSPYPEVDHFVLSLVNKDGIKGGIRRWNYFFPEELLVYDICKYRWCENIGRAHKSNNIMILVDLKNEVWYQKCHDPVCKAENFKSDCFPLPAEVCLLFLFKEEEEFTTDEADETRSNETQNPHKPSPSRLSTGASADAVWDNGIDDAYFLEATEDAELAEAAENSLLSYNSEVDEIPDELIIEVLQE
Nature of the data set: gel-based single nucleotide primer extension. The format is biochemical. Particulars: 200 uM dNTP.

For the next data set, the target named is T2, PrimPol1–354 (Homo sapiens, UniProt Q96LW4).
T2 construct: gene PRIMPOL; AEP polymerase domain, residues 1-354, lacks zinc finger; E. coli, Ni-NTA
T2 sequence (Q96LW4 1-354): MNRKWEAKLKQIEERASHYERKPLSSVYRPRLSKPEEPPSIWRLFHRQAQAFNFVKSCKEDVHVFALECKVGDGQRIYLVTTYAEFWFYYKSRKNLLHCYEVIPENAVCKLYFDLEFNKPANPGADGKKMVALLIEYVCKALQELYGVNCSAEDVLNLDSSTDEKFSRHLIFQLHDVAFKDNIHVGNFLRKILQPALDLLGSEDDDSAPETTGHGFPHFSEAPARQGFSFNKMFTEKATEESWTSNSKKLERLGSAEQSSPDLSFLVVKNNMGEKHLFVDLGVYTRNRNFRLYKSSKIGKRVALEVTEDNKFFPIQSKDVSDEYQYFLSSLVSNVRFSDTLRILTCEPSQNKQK
Nature of the data set: gel-based single nucleotide primer extension. The format is biochemical. Particulars: opposite templating cytosines; 200 uM dNTP, 10 mM MgCl2, pH 7.0.

For data set [2], the target named is T3, PrimPol372-560 (zinc finger domain) (Homo sapiens, UniProt Q96LW4 372-560).
T3 sequence: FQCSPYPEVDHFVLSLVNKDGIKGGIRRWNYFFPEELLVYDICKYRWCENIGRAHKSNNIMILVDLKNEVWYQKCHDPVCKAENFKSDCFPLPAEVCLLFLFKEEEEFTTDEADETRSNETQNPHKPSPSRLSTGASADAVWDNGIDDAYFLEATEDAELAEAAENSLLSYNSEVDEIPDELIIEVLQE
In words: EMSA; 10 mM Mg2+; 40 nM DNA; protein 0.05-20 uM; 10 mM Bis-Tris-Propane-HCl pH 7.0, 10 mM MgCl2, 1 mM DTT, 40 nM DNA, 25°C, 60 min; 5% polyacrylamide gel in 0.5x TBE. Particulars: protein: recombinant; tags: His (Ni-NTA purified); label: 5'-Hex.

Data set [3] has as its target T4, PrimPol1-354 (AEP polymerase domain) (Homo sapiens, UniProt Q96LW4 1-354).
T4 sequence: T2 sequence (Q96LW4 1-354)
In words: EMSA; 10 mM Mg2+; 40 nM DNA; shift evident at ~0.5 uM protein, complete at 5 uM; 10 mM Bis-Tris-Propane-HCl pH 7.0, 10 mM MgCl2, 1 mM DTT, 40 nM DNA, 25°C, 60 min; 5% polyacrylamide gel in 0.5x TBE. Particulars: protein: recombinant, tags: His (Ni-NTA purified).

For data set [4], the target named is T3, PrimPol372-560 (zinc finger domain). Nature of the data set: EMSA; 10 mM Mg2+; 40 nM DNA; no shift, protein 0.05-20 uM; 10 mM Bis-Tris-Propane-HCl pH 7.0, 10 mM MgCl2, 1 mM DTT, 40 nM DNA, 25°C, 60 min; 5% polyacrylamide gel in 0.5x TBE. Particulars: protein: recombinant; tags: His (Ni-NTA purified); label: 5'-Hex on strand 1; blunt.

As for `Nc1ncnc2c1ncn2[C@H]1C[C@H](O)[C@@H](COP(=O)(O)OP(=O)(O)OP(=O)(O)O)O1` [dATP], the “gel-based single nucleotide primer extension” value in data set [1] (template-independent extension, 10 mM MgCl2, 1 mM MnCl2, pH 7.0, 37 °C) is “promiscuous DNA synthesis was most efficient when enzyme was utilising dATP or dTTP”.
For the molecule `Nc1nc2c(ncn2[C@H]2C[C@H](O)[C@@H](COP(=O)(O)OP(=O)(O)OP(=O)(O)O)O2)c(=O)[nH]1` [dGTP], the “gel-based single nucleotide primer extension” value is on record as “All four of these PrimPol constructs inserted two guanine nucleotides opposite two cytosines” on PrimPol1–354 and “all incorporated two correct incoming guanine nucleotides opposite the templating cytosines” in data set [1] (opposite templating cytosines, 10 mM MgCl2, pH 7.0).
With TGTCGTCTGTTCGGTCGTTCGGTCTTCAAGGCTGTTGTGCGCCCTGCGCG (ssDNA) [HP-50 ssDNA (sequence 7)], the binding result in data set [2] and in data set [3] (label: 5'-Hex) was “binds” throughout.

B1: HP-50/ND-50 dsDNA (sequence 6 annealed to 7) (dsDNA)
DNA 1: TGTCGTCTGTTCGGTCGTTCGGTCTTCAAGGCTGTTGTGCGCCCTGCGCG
DNA 2: CGCGCAGGGCGCACAACAGCCTTGAAGACCGAACGACCGAACAGACGACA
As to B1, the binding result in data set [3] (label: 5'-Hex on strand 1, blunt) is reported as “binds”; in data set [4] it was “no binding”.
